3 substances from PMC8513623 can be followed below.

Assay [1] concerns the target Full-length zebrafish Cavin4b (Cavin4b-FL), His-ubiquitin tagged (zebrafish) (UniProt Q5PQY9). Kind of assay: ITC.
Assay [2] deals with Bin1b SH3 domain (zebrafish), N-terminally His-tagged (zebrafish). Kind of assay: ITC.

In assay [1], “Bin1b SH3 domain (zebrafish), N-terminally His-tagged (domain or fragment)” yielded a dissociation constant (Kd) of 55.9 µM.

“Cavin4b PRD peptide (zebrafish Cavin4b proline-rich peptide) (from UniProt Q5PQY9 271-286)” returned a dissociation constant (Kd) in assay [2] of 61.7 µM. Same read-out and setting: under “Chikungunya virus (CHIKV) proline-rich peptide” stands 0.0889 µM.
